Laboratory results taken from patent publication US20050232933A1, “CMV-IE1 peptides and method of use” (priority 2003, published 2005).
Like-named read-outs stand apart in the source and are kept apart here.

What was measured:
[1] = target: HLA A*0201 molecule on the surface of T2 cells (human); assay: T2 cell HLA-A2 stabilisation, 100 µM peptide for 18 h, BB7.2 flow cytometry
[2] = target: HLA A*0201 molecule on the surface of T2 cells (human); assay: T2 cell HLA-A2 stabilisation; fold over the mean of no peptide and HLA mismatch B7 peptide
[3] = target: HLA A*0201 molecule on the surface of T2 cells (human); conditions: remark: other sources report otherwise

Binder	peak channel [1]	Fold Increase [2]	Fold Increase [3]	peak channel [3]
VLAELVKQI (modifications not checked) [IE1p81-89]	495	2 fold		
TPRVTGGGAM (modifications not checked) [(-)control B7 T10M]			1 fold	232
LLSEFCRVL (modifications not checked) [IE1p304-312]	433	1.8 fold		
